Consider 13 molecules from patent US20080050810A1.

Changes are numbered by the printed parent chain. Bounds are passed on as bounds.

Assay [1] has as its target TAG-72 positive bovine submaxillary mucin (BSM) (bovine). As to the kind of experiment: relative affinity constant from competition RIA on BSM.
In assay [2] the target is anti-idiotypic antibodies in the serum of one patient who had received ^177Lu-CC49 (Example V, patient not named). As to the kind of experiment: size-exclusion HPLC competition vs 125I-HuCC49 + patient serum. A general note: In gel filtration, larger molecules generally elute earlier.
The target of assay [3] is anti-CC49 variable region antibodies in the serum of patient six. As to the kind of experiment: HPLC, 125I-HuCC49 + serum + 5 Tg competitor; fewer complexes = competitor bound.
Assay [4] deals with anti-CC49 variable region antibodies in the serum of patient three. The assay is described as above.
Assay [5] deals with anti-CC49 variable region antibodies in the serum of patient one. Described as above.
The target in assay [6] is anti-CC49 variable region antibodies in the serum of patient two. The assay is described as above.
Assay [7] has as its target anti-CC49 variable region antibodies in the serum of patient four. The description is as above.
Assay [8] has as its target anti-CC49 variable region antibodies in the serum of patient five. Described as above.
Assay [9] concerns the target anti-CC49 variable region antibodies in the serum of patient six. Put plainly: HPLC, serial dilutions of cold competitor vs 125I-HuCC49 + CP serum.
Assay [10] deals with mouse anti-idiotypic MAb AI49-1. Put plainly: competition RIA vs 125I-CC49 on AI49-1-coated wells.
Assay [11] has as its target mouse anti-idiotypic MAb AI49-3. Put plainly: competition RIA vs 125I-CC49 on AI49-3-coated wells.

B1: HuCC49 CDR variant L-1 (antibody, V domains shown)
VH: QVQLVQSGAEVVKPGASVKISCKASGYTFTDHAIHWVKQNPGQRLEWIGYFSPGNDDFKYNERFKGKATLTADTSASTAYVELSSLRSEDTAVYFCTRSLNMAYWGQGTLVTVSS
VL: DIVMSQSPDSLAVSLGERVTLNCKSSQSVLYSSNSKNYLAWYQQKPGQSPKLLIYWASARESGVPDRFSGSGSGTDFTLTISSVQAEDVAVYYCQQYYSYPLTFGAGTKLELK
Take B1: the fold less Ka than HuCC49 in assay [1] worked out at 2 fold. In addition, the amount of competitor for 50% inhibition of complex formation in assay [2] amounted to 0.7 Tg. Moreover, the percent of complexes in assay [3] is 16.9%; in assay [4], 12.2%; in assay [5], 16%; in assay [6] it was 10.1%; in assay [7], 9.8%; in [8], 14.3%.

B2: humanized monoclonal antibody HuCC49 (parental HuCC49) (antibody, V domains shown)
VH: B1 VH
VL: B1 VL with V29L, S33G, S35Q
Take B2: the Ka in assay [1] came out at 3.2e+08 M⁻¹. The amount of competitor for 25% competition in assay [9] is 60 ng. In assay [9], the amount of competitor for 50% competition turned out to be 250 ng. Moreover, the percent of complexes in assay [3] amounted to 1.5%; in assay [4] it was 0%; in assay [5] it was 0%; in assay [6] it was 0.5%; in assay [7], 2.6%; in assay [8] it was 3%.

B3: HuCC49 variant MAb ^97L/^60-62,64H (antibody, V domains shown)
VH: B1 VH with N61S, E62Q, R63K, K65Q
VL: B1 VL with V29L, S33G, S35Q, T103S
In the case of B3, the Ka in assay [1] was determined as 5.48e+08 M⁻¹.

B4: HuCC49 CDR variant L-1,2 (antibody, V domains shown)
VH: B1 VH
VL: B1 VL with A59T
For the molecule B4, in [1], the fold less Ka than HuCC49 amounted to 2 fold. Besides, the percent of complexes in assay [3] was 15.7%; in assay [4] it was 24.5%; in [5], 24.6%; in [6] it was 19.4%; in [7], 12.6%; in assay [8], 20.2%.

B5: HuCC49 SDR variant ^97L (antibody, V domains shown)
VH: B1 VH
VL: B1 VL with V29L, S33G, S35Q, T103S
B5 displayed a Ka in assay [1] of 3.6e+08 M⁻¹.

B6: HuCC49 variant MAb ^97L1,2/^60-62,64H (antibody, V domains shown)
VH: B1 VH with N61S, E62Q, R63K, K65Q
VL: B1 VL with A59T, T103S
In [1], B6 gave a fold less Ka than HuCC49 of 3 fold. Further, the percent competition at 1 Tg in [9] is below 25%.

B7: HuCC49 CDR variant H-3 (antibody, V domains shown)
VH: QVQLVQSGAEVVKPGASVKISCKASGYTFTDHAIHWVKQNPGQRLEWIGYFSPGNDDFKYNERFKGKATLTADTSASTAYVELSSLRSEDTAVYFCTRGGYYGSGSGSNYWGQGTLVTVSS
VL: B1 VL with V29L, S33G, S35Q
For B7, the amount of competitor for 50% inhibition of complex formation in [2] was 0.4 Tg. Besides, the percent of complexes was found to be 6.7% in [3]; 5.1% in assay [4]; 7.3% in assay [5]; 8.2% in [6]; 3.7% in assay [7]; 4.6% in [8].

B8: HuCC49 CDR variant L-2 (antibody, V domains shown)
VH: B1 VH
VL: B1 VL with V29L, S33G, S35Q, A59T
B8: the fold better competition than HuCC49 in assay [2] turned out to be 2 fold. Besides, the percent of complexes in assay [3] was determined as 3%; in [4], 3.4%; in [5] it was 2.7%; in [6], 4.4%; in assay [7], 2.7%; in assay [8], 2.4%.

B9: HuCC49 CDR variant L-3 (antibody, V domains shown)
VH: B1 VH
VL: B1 VL with V29L, S33G, S35Q, Y100T, L102Y, T103S
As to B9, the percent of complexes worked out at 33.5% in [3]; 48.2% in [4]; 34.8% in [5]; 37.6% in [6]; 22.4% in [7]; 46.7% in [8].

B10: HuCC49 SDR variant ^60-62,64H (antibody, V domains shown)
VH: B1 VH with N61S, E62Q, R63K, K65Q
VL: B1 VL with V29L, S33G, S35Q
In the case of B10, the Ka in [1] was determined as 2.2e+08 M⁻¹.

B11: HuCC49 CDR variant H-1 (antibody, V domains shown)
VH: B1 VH with D31S, H32Y, I34M
VL: B1 VL with V29L, S33G, S35Q
Regarding B11, the percent of complexes in assay [3] is 5.8%; in assay [4], 3.9%; in [5], 10.2%; in assay [6], 7%; in [7], 3.3%; in [8], 3.5%.

B12: HuCC49 CDR variant H-2 (antibody, V domains shown)
VH: QVQLVQSGAEVVKPGASVKISCKASGYTFTDHAIHWVKQNPGQRLEWIGWINAGNGNTKYSQKFQGKATLTADTSASTAYVELSSLRSEDTAVYFCTRSLNMAYWGQGTLVTVSS
VL: B1 VL with V29L, S33G, S35Q
For B12, the fold more competitor for 50% inhibition than HuCC49 in [10] and in assay [11] was 4 to 15 fold each time. This molecule also had a fold less Ka than HuCC49 in assay [1] of 300 fold. Besides, the amount of competitor for 50% inhibition of complex formation in assay [2] is above 10 Tg. In addition, the percent of complexes turned out to be 29.7% in [3]; 32.5% in [4]; 32.7% in [5]; 24.7% in assay [6]; 12.7% in assay [7]; 36.6% in [8].

B13: HuCC49 variant ^97L1,2 (antibody, V domains shown)
VH: B1 VH
VL: B1 VL with A59T, T103S
Turning to B13, in [1], the Ka was determined as 1.4e+08 M⁻¹ and the fold less Ka than HuCC49 lay within 2 to 3 fold.
